Assay results as given in the RNAGym collection of RNA variant scans (doi:10.7554/elife.80360).

B1: HDV Ribozyme (parent)
chain: GGCCGGCAUGGUCCCAGCCUCCUCGCUGGCGCCGGCUGGGCAACAUUCCGAGGGGACCGUCCCCUCGGUAAUGGCGAAUGGGACCCA

Variants of: B1
Assay: self-cleavage, relative activity (ratio to wild type); higher = more cleavage; co-transcriptional

Point of comparison: GGCCGGCAUGGUCCUAGCCUCCUCGCUGGCGCCGGCUGGGCAACAUUCCGAGGGGACCGUCCCCUCGGUAAUGGCGAAUGGGACCGA [C15U C86G], self-cleavage 0.91. Against it:
- GGCCGGCAUGGUCCUAGCCUCCUCGCUGGCGCCGGCUGGGCAACAUUCCGAGGGGACCGUCACCUCGGUAAUGGCGAAUGGGACCCA [C15U C62A] — higher, 1.08
- GGCCGGCAUGGUCCUAGCCUCCUCGCUGGCGCCGGCUGGGCAACAUUCCGAGGGGACCGUCUCCUCGGUAAUGGCGAAUGGGACCCA [C15U C62U] — lower, 0.764
- GGCCGGCAUGGUCCUAGCCUCCUCGCUGGCGCCGGCUGGCCAACAUUCCGAGGGGACCGUCCCCUCGGUAAUGGCGAAUGGGACCCA [C15U G40C] — lower, 0.249
- GGCCGGCAUGGUCCUAGCCUCCUCGCUGGCGCCGGCUGGUCAACAUUCCGAGGGGACCGUCCCCUCGGUAAUGGCGAAUGGGACCCA [C15U G40U] — lower, 0.791
- GGCCGGCAUGGUCCUAGCCUCCUCGCUGGCGCCGGCUGGACAACAUUCCGAGGGGACCGUCCCCUCGGUAAUGGCGAAUGGGACCCA [C15U G40A] — higher, 0.972
- GGCCGGCAUGGUCCUAGCCUCCUCGCUGGCGCCGGCUGGGCAACAUUCCGAGGGGACCGUCCCCUCGGUAAUGGCGAAUGGGACCAA [C15U C86A] — higher, 1.1
- GGCCGGCAUGGUCCUAGCCUCCUCGCUGGCGCCGGCUGGGCAACAUUCCGAGGGGACCGUCCCCUCGGUAAUGGCGAAUGGGACCUA [C15U C86U] — lower, 0.895
- GGCCGGCAUGGUCCUAGCCUCCUCGCUGGCGCGGGCUGGGCAACAUUCCGAGGGGACCGUCCCCUCGGUAAUGGCGAAUGGGACCCA [C15U C33G] — lower, 0.166
- GGCCGGCAUGGUCCUAGCCUCCUCGCUGGCGCAGGCUGGGCAACAUUCCGAGGGGACCGUCCCCUCGGUAAUGGCGAAUGGGACCCA [C15U C33A] — lower, 0.178
- GGCCGGCAUGGUCCUAGCCUCCUCGCUGGCGCCGGCUGGGCAACAUUCCGAGUGGACCGUCCCCUCGGUAAUGGCGAAUGGGACCCA [C15U G53U] — lower, 0.767
- GGCCGGCAUGGUCCUAGCCUCCUCGCUGCCGCCGGCUGGGCAACAUUCCGAGGGGACCGUCCCCUCGGUAAUGGCGAAUGGGACCCA [C15U G29C] — lower, 0.0449
- GGCCGGCAUGGUCCUAGCCUCCUCGCUGGCGCCGGCUGGGCAACAUUCCGAGGGGACCGUCCCCUCGGUAAUUGCGAAUGGGACCCA [C15U G73U] — lower, 0.269
- GGCCGGCAUGGUCCUAGCCUCCUCGCUUGCGCCGGCUGGGCAACAUUCCGAGGGGACCGUCCCCUCGGUAAUGGCGAAUGGGACCCA [C15U G28U] — lower, 0.227
- GGCCGGCAUGGUCCUAGCCUCCUCGCUCGCGCCGGCUGGGCAACAUUCCGAGGGGACCGUCCCCUCGGUAAUGGCGAAUGGGACCCA [C15U G28C] — lower, 0.0405
- GGCCGGCAUGGUCCUAGCCUCCUCCCUGGCGCCGGCUGGGCAACAUUCCGAGGGGACCGUCCCCUCGGUAAUGGCGAAUGGGACCCA [C15U G25C] — lower, 0.0723
- GGCCGGCAUGGUCCUAGCCUCCUCUCUGGCGCCGGCUGGGCAACAUUCCGAGGGGACCGUCCCCUCGGUAAUGGCGAAUGGGACCCA [C15U G25U] — lower, 0.0875
- GGCCGGCAUGGUCCUAGCCUCCUCGCUGGCGCCGGCUGGGCAACAUUCCGAGGGUACCGUCCCCUCGGUAAUGGCGAAUGGGACCCA [C15U G55U] — lower, 0.729
- GGCCGGCAUGGUCCUAGCCUCCUCGCUGGCGCCGGCUGGGCAACAUUCCGAGGGGACCGUCCCCUCGGUAAUGGCGAAUGGGACGCA [C15U C85G] — lower, 0.831
- GGCCGGCAUGGUCCUAGCCUCCUCGCUGGCGCCGGGUGGGCAACAUUCCGAGGGGACCGUCCCCUCGGUAAUGGCGAAUGGGACCCA [C15U C36G] — lower, 0.128
- GGCCGGCAUGGUCCUAGCCUCCUCGCUGGCGCCGGCUGGGCAACAUUCCGAGGGGACCGUCCGCUCGGUAAUGGCGAAUGGGACCCA [C15U C63G] — lower, 0.776
- GGCCGGCAUGGUCCUAGCCUCCUCGCUGGCGCCGGCUGGGCAACAUUCCGAGGGGACCGUCCACUCGGUAAUGGCGAAUGGGACCCA [C15U C63A] — higher, 1.03
- GGCCGGCAUGGUCCUAGCCUCCUCGCUGGCGCCGGCUCGGCAACAUUCCGAGGGGACCGUCCCCUCGGUAAUGGCGAAUGGGACCCA [C15U G38C] — lower, 0.17
- GGCCGGCAUGGUCCUAGCCUCCUCGCUGGCGCCGGCUUGGCAACAUUCCGAGGGGACCGUCCCCUCGGUAAUGGCGAAUGGGACCCA [C15U G38U] — lower, 0.259
- GGCCGGCAUGGUCCUAGCCUCCUCGCUGGCGCCGGCUAGGCAACAUUCCGAGGGGACCGUCCCCUCGGUAAUGGCGAAUGGGACCCA [C15U G38A] — lower, 0.188
- GGCCGGCAUGGUCCUAGCCUCCUCGCUGGCGCCGGCUGGGCAACAUUCCCAGGGGACCGUCCCCUCGGUAAUGGCGAAUGGGACCCA [C15U G50C] — lower, 0.831
- GGCCGGCAUGGUCCUAGCCUCCUCGCUGGCGCCGGCUGGGCAACAUUCCUAGGGGACCGUCCCCUCGGUAAUGGCGAAUGGGACCCA [C15U G50U] — higher, 0.991
- GGCCGGCAUGGUCCUAGCCUCCUCGCUGGCGACGGCUGGGCAACAUUCCGAGGGGACCGUCCCCUCGGUAAUGGCGAAUGGGACCCA [C15U C32A] — lower, 0.214
- GGCCGGCAUGGUCCUAGCCUCCUCGCUGGCGUCGGCUGGGCAACAUUCCGAGGGGACCGUCCCCUCGGUAAUGGCGAAUGGGACCCA [C15U C32U] — lower, 0.73
- GGCCGGCAUGGUCCUAGCCUCCUCGCUGGCGCCGUCUGGGCAACAUUCCGAGGGGACCGUCCCCUCGGUAAUGGCGAAUGGGACCCA [C15U G35U] — lower, 0.252
- GGCCGGCAUGGUCCUAGCCUCCUCGCUGGCGCCGGCUGGGCAACAUUCCGAGGGGACCGUCCCCUCGGUAAUGGCAAAUGGGACCCA [C15U G76A] — higher, 0.997
- GGCCGGCAUGGUCCUAGCCUCCUCGCUGGCGCCGGCUGGGCAACAUUCCGAGGGGACCGUCCCCUCGGUAAUGGCCAAUGGGACCCA [C15U G76C] — higher, 1.03
- GGCCGGCAUGGUCCUAGCCUCCUCGCUGGCGCCGGCUGGGCAACAUUCCGAGGGGAACGUCCCCUCGGUAAUGGCGAAUGGGACCCA [C15U C57A] — higher, 1.03
- GGCCGGCAUGGUCCUAGCCUCCUCGCUGGCGCCGGCUGGGCAACAUUCCGAGGGGAUCGUCCCCUCGGUAAUGGCGAAUGGGACCCA [C15U C57U] — lower, 0.864
- GGCCGGCAUGGUCCUAGCCUCCUCGCUGGCGCCGGCUGGGCAACAUUCCGAGGGGACCGUCCCUUCGGUAAUGGCGAAUGGGACCCA [C15U C64U] — lower, 0.902
- GGCCGGCAUGGUCCUAGCCUCCUCGCUGGCGCCGGCUGGGCAACAUUCCGAGGGGACCGUCCCCUCGGUAAUGCCGAAUGGGACCCA [C15U G74C] — lower, 0.185
- GGCCGGCAUGGUCCUAGCCUCCUCGCUGGCGCCGGCUGGGCAACAUUCCGAGGGGACCGUCCCCUCGGUAAUGACGAAUGGGACCCA [C15U G74A] — lower, 0.383
- GGCCGGCAUGGUCCUAGCCUCCUCGCUGGCGCCGGCUGGGCAACAUUCCGAGGGGACCGUCCCCUCGGUAAUGUCGAAUGGGACCCA [C15U G74U] — lower, 0.485
- GGCCGGCAUGGUCCUAACCUCCUCGCUGGCGCCGGCUGGGCAACAUUCCGAGGGGACCGUCCCCUCGGUAAUGGCGAAUGGGACCCA [C15U G17A] — lower, 0.604
- GGCCGGCAUGGUCCUACCCUCCUCGCUGGCGCCGGCUGGGCAACAUUCCGAGGGGACCGUCCCCUCGGUAAUGGCGAAUGGGACCCA [C15U G17C] — lower, 0.0978
- GGCCGGCAUGGUCCUAGCCUCCUCGCUGGCGCCGGCUGGGCAACAUUCCGAGGGGACCGUCCCCUCGGUAAUGGCGAAUGGGAACCA [C15U C84A] — lower, 0.81
- GGCCGGCAUGGUCCUAGCCUCCUCGCUGGCGCCGGCUGGGCAACAUUCCGAGGGGACCGUCCCCUCGGUAAUGGGGAAUGGGACCCA [C15U C75G] — lower, 0.0665
- GGCCGGCAUGGUCCUAGCCUCCUCGCUGGCACCGGCUGGGCAACAUUCCGAGGGGACCGUCCCCUCGGUAAUGGCGAAUGGGACCCA [C15U G31A] — lower, 0.302
- GGCCGGCAUGGUCCUAGCCUCCUCGCUGGCGCCGGCUGGGUAACAUUCCGAGGGGACCGUCCCCUCGGUAAUGGCGAAUGGGACCCA [C15U C41U] — higher, 1.05
- GGCCGGCAUGGUCCUAGCCUCCUCGCUGGCGCCGGCUGGGAAACAUUCCGAGGGGACCGUCCCCUCGGUAAUGGCGAAUGGGACCCA [C15U C41A] — higher, 0.962
- GGCCGGCAUGGUCCUAGCCUCCUCGCUGGCGCCGGCUGGGCAACAUUCCGAGGGGACCGUCCCCUCGCUAAUGGCGAAUGGGACCCA [C15U G68C] — lower, 0.597
- GGCCGGCAUGGUCCUAGCCUCCUCGCUGGCGCCGGCUGGGCAACAUUCCGAAGGGACCGUCCCCUCGGUAAUGGCGAAUGGGACCCA [C15U G52A] — lower, 0.863
- GGCCGGCAUGGUCCUAGCCUCCUCGCUGGCGCCGGCUGGGCAACAUUCCGAGGGGACCGUCCCCUCGGUAAUGGCGAAUGCGACCCA [C15U G81C] — lower, 0.317
- GGCCGGCAUGGUCCUAGCCUCCUCGCUGGCGCCGGCUGGGCAACAUUCCGAGGGGACCCUCCCCUCGGUAAUGGCGAAUGGGACCCA [C15U G59C] — higher, 1.13
- GGCCGGCAUGGUCCUAGCCUCCUCGCUGGCGCCGGCUGGGCAACAUUCCGAGGGGACCAUCCCCUCGGUAAUGGCGAAUGGGACCCA [C15U G59A] — lower, 0.851
- GGCCGGCAUGGUCCUAGCCUCCUCGCUGGCGCCGGCUGGGCAACAUUCCGAGGGGACCGUCCCCUCGGUAAUGGCGAAUUGGACCCA [C15U G80U] — lower, 0.526
- GGCCGGCAUGGUCCUAGCCUCCUCGCUGGCGCCGGCUGGGCAACAUUCCGAGGGGACCGUCCCCUCGGUAAUGGCGAAUAGGACCCA [C15U G80A] — higher, 0.992
- GGCCGGCAUGGUCCUAGCCUCCUCGCUGGCGCCGGCUGGGCAAGAUUCCGAGGGGACCGUCCCCUCGGUAAUGGCGAAUGGGACCCA [C15U C44G] — lower, 0.214
- GGCCGGCAUGGUCCUAGCCUCCUCGCUGGCGCCGGCUGGGCAAAAUUCCGAGGGGACCGUCCCCUCGGUAAUGGCGAAUGGGACCCA [C15U C44A] — lower, 0.684
- GGCCGGCAUGGUCCUAGCCUCCUCGCUGGCGCCGGCUGGGCAACAUUCCGAGGGGACAGUCCCCUCGGUAAUGGCGAAUGGGACCCA [C15U C58A] — higher, 0.997
- GGCCGGCAUGGUCCUAGCCUCCUCGCUGGUGCCGGCUGGGCAACAUUCCGAGGGGACCGUCCCCUCGGUAAUGGCGAAUGGGACCCA [C15U C30U] — lower, 0.554
- GGCCGGCAUGGUCCUAGCCUCCUCGCUGGCGCCGGCUGGGCAACAUUCCGAGGGGACCGUCCCCUUGGUAAUGGCGAAUGGGACCCA [C15U C66U] — higher, 1.21
- GGCCGGCAUGGUCCUAGCCUCCUCGCUGGCGCCGGCUGGGCAACAUUCCGAGGGGACCGUCCCCUGGGUAAUGGCGAAUGGGACCCA [C15U C66G] — lower, 0.831
- GGCCGGCAUGGUCCUAGCCUCCUCGCUGGCGCCGGCUGGGCAACAUUCCGAGGGGACCGUCCCCUCGGUAAUGGCGAAUGGCACCCA [C15U G82C] — lower, 0.166
- GGCCGGCAUGGUCCUAGCCUCCUCGCUGGCGCCGGCUGGGCAACAUUCCGAGGGGACCGUCCCCUCGGUAAUGGCGAAUGGUACCCA [C15U G82U] — lower, 0.231
- GGCCGGCAUGGUCCUAGCCUCCUCGCUGGCGCCGGCUGGGCAACAUUUCGAGGGGACCGUCCCCUCGGUAAUGGCGAAUGGGACCCA [C15U C48U] — lower, 0.852
- GGCCGGCAUGGUCCUAGCCUCCUCGCUGGCGCCGGCUGGGCAACAUUACGAGGGGACCGUCCCCUCGGUAAUGGCGAAUGGGACCCA [C15U C48A] — higher, 1.17
- GGCCGGCAUGGUCCUAGCCUCCUCGCUGGCGCCGGCUGGGCAACAUUGCGAGGGGACCGUCCCCUCGGUAAUGGCGAAUGGGACCCA [C15U C48G] — higher, 1.13
- GGCCGGCAUGGUCCUAGCCUCCUCGCUGGCGCCGGCUGGGCAACAUUCAGAGGGGACCGUCCCCUCGGUAAUGGCGAAUGGGACCCA [C15U C49A] — lower, 0.623
